Measured values taken from IntAct's records for PubMed 10722738.

B1: Early protein (Human adenovirus A serotype 12 (HAdV-12)), P03259-2 (parent)
chain: MRTEMTPLVLSYQEADDILEHLVDNFFNEVPSDDDLYVPSLYELYDLDVESAGEDNNEQAVNEFFPESLILAASEGLFLPEPPVLSPVCEPIGGECMPQLHPEDMDLLCYEMGFPCSDSEDEQDENGMAHVSASAAAAAADREREEFQLDHPELPGHNCPVSDNEPEPNSTLDGDERPSPPKLGSAVPEGVIKPVPQRVTGRRRCAVESILDLIQEEEREQTVPVDLSVKRPRCN

Variants of: B1
Details: with cbp_human CREBBP
For D16A, the “effect of a mutation on the interaction” value was “disrupting interaction”.
I18P was tested, and the “effect of a mutation on the interaction” value was “decreasing interaction”.
For L19S, the “effect of a mutation on the interaction” value was “decreasing interaction”.
